The source of these data is US20240293512A1 (HANMI PHARM, published 2024).

Common to all, as to assay: cell-based or functional assay
One test concerns the target human GLP-1 receptor (human, UniProt P43220 24-463).
Another test addresses human GCG receptor (human, UniProt P47871 26-477).
For another test, the target named is T1, human GIP receptor (human, UniProt P48546 22-466).
T1 sequence (looked up): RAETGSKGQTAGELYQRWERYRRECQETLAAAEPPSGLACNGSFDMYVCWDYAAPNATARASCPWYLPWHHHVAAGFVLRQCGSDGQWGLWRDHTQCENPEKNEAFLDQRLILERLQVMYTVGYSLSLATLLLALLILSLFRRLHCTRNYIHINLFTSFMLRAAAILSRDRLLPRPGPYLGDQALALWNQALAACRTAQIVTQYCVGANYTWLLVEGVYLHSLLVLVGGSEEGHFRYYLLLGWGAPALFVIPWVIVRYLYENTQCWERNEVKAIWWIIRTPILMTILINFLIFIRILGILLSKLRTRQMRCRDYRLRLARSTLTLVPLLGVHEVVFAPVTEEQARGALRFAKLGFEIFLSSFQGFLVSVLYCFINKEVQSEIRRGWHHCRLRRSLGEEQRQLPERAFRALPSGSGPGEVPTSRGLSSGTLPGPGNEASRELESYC

Bridge positions count the residues as written; N and C are the ends. Square brackets hold non-standard residues; d marks the D form. Ends that are not written are not given here. * marks the point of attachment. Acetyl(2-(4-imidazolyl)) = O=C(Cc1c[nH]cn1)*; Aib = CC(C)(N)C(=O)O

Sequence of human GCG receptor (P47871 26-477): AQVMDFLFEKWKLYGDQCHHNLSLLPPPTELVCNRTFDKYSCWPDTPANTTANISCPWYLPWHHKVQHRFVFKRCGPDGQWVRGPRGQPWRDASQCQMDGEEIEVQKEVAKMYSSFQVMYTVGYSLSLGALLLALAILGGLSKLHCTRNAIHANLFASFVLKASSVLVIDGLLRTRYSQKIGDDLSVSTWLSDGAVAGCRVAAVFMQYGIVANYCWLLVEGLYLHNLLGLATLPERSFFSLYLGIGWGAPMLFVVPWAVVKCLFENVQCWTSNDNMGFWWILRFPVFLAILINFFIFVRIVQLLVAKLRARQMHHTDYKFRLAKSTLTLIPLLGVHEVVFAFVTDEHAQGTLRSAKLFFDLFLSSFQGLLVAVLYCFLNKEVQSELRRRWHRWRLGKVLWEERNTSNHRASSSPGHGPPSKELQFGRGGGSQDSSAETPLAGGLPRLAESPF

With H[Aib]QGTFTSDVSSYLDGQAAKEFIAWLVKGC [triple agonist of SEQ ID NO: 1], in the test with human GLP-1 receptor, the “In vitro activity compared with native peptide (%) vs GLP-1 (cAMP EC50)” value (shortened to “In vitro activity … (%) vs GLP-1 (cAMP EC50)”) came out at 3.2%. For the same molecule, the “In vitro activity compared with native peptide (%) vs Glucagon (cAMP EC50)” value (“In vitro activity … (%) vs Glucagon (cAMP EC50)” below) with human GCG receptor is below 0.1%. Besides, the “In vitro activity compared with native peptide (%) vs GIP (cAMP EC50)” value (“In vitro activity … (%) vs GIP (cAMP EC50)” for short) with human GIP receptor was below 0.1%.

Take Y[Aib]QGTFTSDYSKYLDEKRAKEFVQWLLDHHPSSGQPPPSC (not fully specified (bridges)) [triple agonist of SEQ ID NO: 42]: the “In vitro activity … (%) vs GLP-1 (cAMP EC50)” value with human GLP-1 receptor came to 33.9%. Besides, the “In vitro activity … (%) vs Glucagon (cAMP EC50)” value with human GCG receptor amounted to 206%. In addition, the “In vitro activity … (%) vs GIP (cAMP EC50)” value with human GIP receptor amounted to 7.8%.

Consider H[Aib]QGTFTSDKSKYLDECAAQDFVQWLLDGGPSSGAPPPS [triple agonist of SEQ ID NO: 41], for which the “In vitro activity … (%) vs GLP-1 (cAMP EC50)” value with human GLP-1 receptor is 34.3%. Also, the “In vitro activity … (%) vs Glucagon (cAMP EC50)” value in the test with human GCG receptor is below 0.1%. Moreover, the “In vitro activity … (%) vs GIP (cAMP EC50)” value with human GIP receptor was below 0.1%.

Consider H[Aib]QGTFTSDYSKYLDECRQKEFVQWLLNGGPSSGAPPPSG (bridge 16-20) [triple agonist of SEQ ID NO: 37], for which the “In vitro activity … (%) vs GLP-1 (cAMP EC50)” value with human GLP-1 receptor was 236%. Besides, the “In vitro activity … (%) vs Glucagon (cAMP EC50)” value with human GCG receptor was 6.21%. The “In vitro activity … (%) vs GIP (cAMP EC50)” value with human GIP receptor is 2.2%.

H[Aib]QGTFTSDYSIAMDEIHQKDFVNWLLNTKC (bridge 16-20) [triple agonist of SEQ ID NO: 35]: in the test with human GLP-1 receptor, the “In vitro activity … (%) vs GLP-1 (cAMP EC50)” value amounted to 7.5%. Further, the “In vitro activity … (%) vs Glucagon (cAMP EC50)” value with human GCG receptor is below 0.1%. Further, in the test with human GIP receptor, the “In vitro activity … (%) vs GIP (cAMP EC50)” value is 1.3%.

In the case of [Acetyl(2-(4-imidazolyl))][Aib]QGTFTSDKSSYLDERAAQDFVQWLLDGGPSSGAPPPSS [triple agonist of SEQ ID NO: 38], the “In vitro activity … (%) vs GLP-1 (cAMP EC50)” value in the test with human GLP-1 receptor turned out to be 2.3%.

For H[Aib]QGTFTSDYSKYLDGQHAQCFVAWLLAGGGPSSGAPPPS [triple agonist of SEQ ID NO: 39], the “In vitro activity … (%) vs GLP-1 (cAMP EC50)” value in the test with human GLP-1 receptor was 13.9%. The “In vitro activity … (%) vs Glucagon (cAMP EC50)” value in the test with human GCG receptor was 0.53%. The “In vitro activity … (%) vs GIP (cAMP EC50)” value with human GIP receptor was below 0.1%.

With H[Aib]QGTFTSDYSKYLDEKRQKEFVNWLLAQKC (bridge 16-20) [triple agonist of SEQ ID NO: 34], in the test with human GLP-1 receptor, the “In vitro activity … (%) vs GLP-1 (cAMP EC50)” value was 19.1%. Moreover, in the test with human GCG receptor, the “In vitro activity … (%) vs Glucagon (cAMP EC50)” value worked out at 0.92%. Besides, the “In vitro activity … (%) vs GIP (cAMP EC50)” value with human GIP receptor was 0.6%.

H[Aib]QGTFTSDYSKYLCEKRQKEFVQWLLNGGPSSGAPPPSG (bridge 16-20) [triple agonist of SEQ ID NO: 36]: in the test with human GLP-1 receptor, the “In vitro activity … (%) vs GLP-1 (cAMP EC50)” value worked out at 37.4%. Further, the “In vitro activity … (%) vs Glucagon (cAMP EC50)” value in the test with human GCG receptor was determined as 0.39%. In addition, in the test with human GIP receptor, the “In vitro activity … (%) vs GIP (cAMP EC50)” value worked out at 0.2%.

In the case of H[Aib]QGTFTSDKSKYLDERACQDFVQWLLDGGPSSGAPPPS [triple agonist of SEQ ID NO: 40], the “In vitro activity … (%) vs GLP-1 (cAMP EC50)” value in the test with human GLP-1 receptor was found to be 75.2%. For the same molecule, the “In vitro activity … (%) vs Glucagon (cAMP EC50)” value with human GCG receptor was below 0.1%. In addition, the “In vitro activity … (%) vs GIP (cAMP EC50)” value with human GIP receptor was below 0.1%.

Consider H[Aib]QGTFTSDVSSYLLGQQQKEFIAWLVKGC [triple agonist of SEQ ID NO: 4], for which the “In vitro activity … (%) vs GLP-1 (cAMP EC50)” value with human GLP-1 receptor was determined as 8.5%. For the same molecule, the “In vitro activity … (%) vs Glucagon (cAMP EC50)” value in the test with human GCG receptor is below 0.1%. Besides, the “In vitro activity … (%) vs GIP (cAMP EC50)” value in the test with human GIP receptor is below 0.1%.
